# According to patent publication US20220098307A1 (WUHAN YZY BIOPHARMA, published 2022):
# Assays:
# [1] = biological target: T1, Monkey CD3 (monkey); test: flow cytometry, monkey T cells
# T1 construct: whole, on cells; also called CD3 of monkey CD3 positive T cells
# [2] = biological target: T2, Human CD3ε (human, UniProt P07766 23-126); test: flow cytometry, human T cells
# T2 construct: CD3 on T cells isolated from human whole blood
# From the text: 1) Cell preparation: T cells isolated from CD3-positive human whole blood were used for a CD3 end affinity detection of multifunctional antibody molecule; positive tumor cells of corresponding antigen were used for detecting affinity of tumor antigen; for example, CD38-positive MM. 1S cells (purchased from the Cell Resource Center of Shanghai Institutes for Biological Sciences, Chinese Academy of Sciences) or RPMI 8226 cells (purchased from the Cell Resource Center of Shanghai Institutes for Biological Sciences, Chinese Academy of Sciences) were used for CD38 antigen detection, and PD-L1 positive H358 cells (purchased from the Cell Resource Center of Shanghai Institutes for Biological Sciences, Chinese Academy of Sciences) were used for PD-L1 antigen detection, and so on. The cells were resuspended with 1% FBS-PBS, adjusted to a density of 4×10⁶/ml, and 50 μl of cells were taken from each well, and then plated at 2×10⁵ per well. Cell plating was operated on ice
# 2) Addition of the antibody: according to the experimental design, the antibody was diluted gradually, and dilution of antibody was operated on ice. For example, the initial concentration of antibody for dilution was 3000 nM, and the antibody was diluted by 3 times with 11 concentration gradients. The diluted antibody was added to a cell well at 50 μl per well, mixed well, and shaked and incubated at 4° C. 1100 rpm/min for 2 h; after washing, the cells were resuspend in 1% FBS-PBS, and a diluted secondary antibody PE anti-human IgG FC (Biolegend, 409304) was added with a final concentration of 8 ug/ml and a volume of 50 μl/well. At the same time, a well only added with cells and secondary antibody was set as a control, the components were mixed well, and incubated under shaking at 1100 rpm/min at 4° C. for 1 h;
# 5) Data analysis: the data was analyzed by a flow analysis software FlowJo 7.6 thereby obtaining an average fluorescence intensity of the specific antibody concentration, plotted by a Graphpad Prism 5 with the antibody concentration (nM) as an abscissa and the average fluorescence intensity as an ordinate; the EC50 value was calculated by the method of One site—Specific binding, and the EC50 value indicated the cell affinity of the antibody to the corresponding target antigen.
Binder,EC50 [1],EC50 [2]
"M1IC-WT-1 (bispecific antibody, human IgG1, kappa, structure 1 isotype control; CH2 WT) not shown heavy: not shown light: DVVMTQTPLSLPVSLGDQASISCRSSQSLVHSNGNTYLRWYLQKPGQSPKVLIYKVSNRFSGVPDRFSGSGSGTDFTLKISRVEAEDLGVYFCSQSTHVPWTFGGGTKLEIKRTVAAPSVFIFPPSDEQLKSGTASVVCLLNNFYPREAKVQWKVDNALQSGNSQESVTEQDSKDSTYSLSSTLTLSKADYEKHKVYACEVTHQGLSSPVTKSFNRGEC",174 nM,153 nM
"M1IC-G2-1 (bispecific antibody, human IgG1, kappa, structure 1 isotype control; CH2 G2CH2) QVQLVESGGGVVQPGRSLRLSCAASGFTFSTYAMNWVRQAPGKGLEWVARIRSKYNNYATYYADSVKDRFTISRDDSKNTLYLQMNSLRAEDTAVYYCARHGNFGNSYVSWFAYWGQGTLVTVSSGGGGSGGGGSGGGGSQTVVTQEPSLTVSPGGTVTLTCRSSTGAVTTSNYANWVQQKPGQAPRGLIGGTNKRAPGVPARFSGSLLGGKAALTLSGVQPEDEAEYYCALWYSNLWVFGGGTKVEIKGGGGSDKTHTCPPCPAPPVAGPSVFLFPPKPKDTLMISRTPEVTCVVVDVSHEDPEVQFNWYVDGVEVHNAKTKPREEQFNSTFRVVSVLTVVHQDWLNGKEYKCKVSNKGLPAPIEKTISKTKGQPREPQVCTLPPSRDELTKNQVSLSCAVKGFYPSDIAVEWESNGQPENNYKTTPPVLDSDGSFFLVSKLTVDKSRWQQGNVFSCSVMHEALHNHYTQKSLSLSPGK heavy: EVKLDETGGGLVQPGRPMKLSCVASGFTFSDYWMNWVRQSPEKGLEWVAQIRNKPYNYETYYSDSVKGRFTISRDDSKSSVYLQMNNLRVEDMGIYYCTGSYYGMDYWGQGTSVTVSSASTKGPSVFPLAPSSKSTSGGTAALGCLVKDYFPEPVTVSWNSGALTSGVHTFPAVLQSSGLYSLSSVVTVPSSSLGTQTYICNVNHKPSNTKVDKKVEPKSCDKTHTCPPCPAPPVAGPSVFLFPPKPKDTLMISRTPEVTCVVVDVSHEDPEVQFNWYVDGVEVHNAKTKPREEQFNSTFRVVSVLTVVHQDWLNGKEYKCKVSNKGLPAPIEKTISKTKGQPREPQVYTLPPCRDELTKNQVSLWCLVKGFYPSDIAVEWESNGQPENNYKTTPPVLDSDGSFFLYSKLTVDKSRWQQGNVFSCSVMHEALHNHYTQKSLSLSPGK light: DVVMTQTPLSLPVSLGDQASISCRSSQSLVHSNGNTYLRWYLQKPGQSPKVLIYKVSNRFSGVPDRFSGSGSGTDFTLKISRVEAEDLGVYFCSQSTHVPWTFGGGTKLEIKRTVAAPSVFIFPPSDEQLKSGTASVVCLLNNFYPREAKVQWKVDNALQSGNSQESVTEQDSKDSTYSLSSTLTLSKADYEKHKVYACEVTHQGLSSPVTKSFNRGEC",165 nM,127 nM
"M1IC-NQ (bispecific antibody, human IgG1, kappa, N297Q, structure 1 isotype control; CH2 N297Q) not shown heavy: EVKLDETGGGLVQPGRPMKLSCVASGFTFSDYWMNWVRQSPEKGLEWVAQIRNKPYNYETYYSDSVKGRFTISRDDSKSSVYLQMNNLRVEDMGIYYCTGSYYGMDYWGQGTSVTVSSASTKGPSVFPLAPSSKSTSGGTAALGCLVKDYFPEPVTVSWNSGALTSGVHTFPAVLQSSGLYSLSSVVTVPSSSLGTQTYICNVNHKPSNTKVDKKVEPKSCDKTHTCPPCPAPELLGGPSVFLFPPKPKDTLMISRTPEVTCVVVDVSHEDPEVKFNWYVDGVEVHNAKTKPREEQYQSTYRVVSVLTVLHQDWLNGKEYKCKVSNKALPAPIEKTISKAKGQPREPQVYTLPPCRDELTKNQVSLWCLVKGFYPSDIAVEWESNGQPENNYKTTPPVLDSDGSFFLYSKLTVDKSRWQQGNVFSCSVMHEALHNHYTQKSLSLSPGK light: DVVMTQTPLSLPVSLGDQASISCRSSQSLVHSNGNTYLRWYLQKPGQSPKVLIYKVSNRFSGVPDRFSGSGSGTDFTLKISRVEAEDLGVYFCSQSTHVPWTFGGGTKLEIKRTVAAPSVFIFPPSDEQLKSGTASVVCLLNNFYPREAKVQWKVDNALQSGNSQESVTEQDSKDSTYSLSSTLTLSKADYEKHKVYACEVTHQGLSSPVTKSFNRGEC",378 nM,194 nM
"M1IC-AAG-1 (bispecific antibody, human IgG1, kappa, L234A L235A, structure 1 isotype control; CH2 AAG) QVQLVESGGGVVQPGRSLRLSCAASGFTFSTYAMNWVRQAPGKGLEWVARIRSKYNNYATYYADSVKDRFTISRDDSKNTLYLQMNSLRAEDTAVYYCARHGNFGNSYVSWFAYWGQGTLVTVSSGGGGSGGGGSGGGGSQTVVTQEPSLTVSPGGTVTLTCRSSTGAVTTSNYANWVQQKPGQAPRGLIGGTNKRAPGVPARFSGSLLGGKAALTLSGVQPEDEAEYYCALWYSNLWVFGGGTKVEIKGGGGSDKTHTCPPCPAPEAAGGPSVFLFPPKPKDTLMISRTPEVTCVVVDVSHEDPEVKFNWYVDGVEVHNAKTKPREEQYNSTYRVVSVLTVLHQDWLNGKEYKCKVSNKALGAPIEKTISKAKGQPREPQVCTLPPSRDELTKNQVSLSCAVKGFYPSDIAVEWESNGQPENNYKTTPPVLDSDGSFFLVSKLTVDKSRWQQGNVFSCSVMHEALHNHYTQKSLSLSPGK heavy: not shown light: DVVMTQTPLSLPVSLGDQASISCRSSQSLVHSNGNTYLRWYLQKPGQSPKVLIYKVSNRFSGVPDRFSGSGSGTDFTLKISRVEAEDLGVYFCSQSTHVPWTFGGGTKLEIKRTVAAPSVFIFPPSDEQLKSGTASVVCLLNNFYPREAKVQWKVDNALQSGNSQESVTEQDSKDSTYSLSSTLTLSKADYEKHKVYACEVTHQGLSSPVTKSFNRGEC",205 nM,152 nM
"M1IC-FES-1 (bispecific antibody, human IgG1, kappa, structure 1 isotype control; CH2 FES; also called MlIC-FES-1) QVQLVESGGGVVQPGRSLRLSCAASGFTFSTYAMNWVRQAPGKGLEWVARIRSKYNNYATYYADSVKDRFTISRDDSKNTLYLQMNSLRAEDTAVYYCARHGNFGNSYVSWFAYWGQGTLVTVSSGGGGSGGGGSGGGGSQTVVTQEPSLTVSPGGTVTLTCRSSTGAVTTSNYANWVQQKPGQAPRGLIGGTNKRAPGVPARFSGSLLGGKAALTLSGVQPEDEAEYYCALWYSNLWVFGGGTKVEIKGGGGSDKTHTCPPCPAPEFEGGPSVFLFPPKPKDTLMISRTPEVTCVVVDVSHEDPEVKFNWYVDGVEVHNAKTKPREEQYNSTYRVVSVLTVLHQDWLNGKEYKCKVSNKALPASIEKTISKAKGQPREPQVCTLPPSRDELTKNQVSLSCAVKGFYPSDIAVEWESNGQPENNYKTTPPVLDSDGSFFLVSKLTVDKSRWQQGNVFSCSVMHEALHNHYTQKSLSLSPGK heavy: EVKLDETGGGLVQPGRPMKLSCVASGFTFSDYWMNWVRQSPEKGLEWVAQIRNKPYNYETYYSDSVKGRFTISRDDSKSSVYLQMNNLRVEDMGIYYCTGSYYGMDYWGQGTSVTVSSASTKGPSVFPLAPSSKSTSGGTAALGCLVKDYFPEPVTVSWNSGALTSGVHTFPAVLQSSGLYSLSSVVTVPSSSLGTQTYICNVNHKPSNTKVDKKVEPKSCDKTHTCPPCPAPEFEGGPSVFLFPPKPKDTLMISRTPEVTCVVVDVSHEDPEVKFNWYVDGVEVHNAKTKPREEQYNSTYRVVSVLTVLHQDWLNGKEYKCKVSNKALPASIEKTISKAKGQPREPQVYTLPPCRDELTKNQVSLWCLVKGFYPSDIAVEWESNGQPENNYKTTPPVLDSDGSFFLYSKLTVDKSRWQQGNVFSCSVMHEALHNHYTQKSLSLSPGK light: DVVMTQTPLSLPVSLGDQASISCRSSQSLVHSNGNTYLRWYLQKPGQSPKVLIYKVSNRFSGVPDRFSGSGSGTDFTLKISRVEAEDLGVYFCSQSTHVPWTFGGGTKLEIKRTVAAPSVFIFPPSDEQLKSGTASVVCLLNNFYPREAKVQWKVDNALQSGNSQESVTEQDSKDSTYSLSSTLTLSKADYEKHKVYACEVTHQGLSSPVTKSFNRGEC",295 nM,170 nM
"M1IC-AG2-1 (bispecific antibody, human IgG1, kappa, structure 1 isotype control; CH2 AG2CH2) QVQLVESGGGVVQPGRSLRLSCAASGFTFSTYAMNWVRQAPGKGLEWVARIRSKYNNYATYYADSVKDRFTISRDDSKNTLYLQMNSLRAEDTAVYYCARHGNFGNSYVSWFAYWGQGTLVTVSSGGGGSGGGGSGGGGSQTVVTQEPSLTVSPGGTVTLTCRSSTGAVTTSNYANWVQQKPGQAPRGLIGGTNKRAPGVPARFSGSLLGGKAALTLSGVQPEDEAEYYCALWYSNLWVFGGGTKVEIKGGGGSDKTHTCPPAPAPPVAGPSVFLFPPKPKDTLMISRTPEVTCVVVDVSHEDPEVQFNWYVDGVEVHNAKTKPREEQFNSTFRVVSVLTVVHQDWLNGKEYKCKVSNKGLPAPIEKTISKTKGQPREPQVCTLPPSRDELTKNQVSLSCAVKGFYPSDIAVEWESNGQPENNYKTTPPVLDSDGSFFLVSKLTVDKSRWQQGNVFSCSVMHEALHNHYTQKSLSLSPGK heavy: EVKLDETGGGLVQPGRPMKLSCVASGFTFSDYWMNWVRQSPEKGLEWVAQIRNKPYNYETYYSDSVKGRFTISRDDSKSSVYLQMNNLRVEDMGIYYCTGSYYGMDYWGQGTSVTVSSASTKGPSVFPLAPSSKSTSGGTAALGCLVKDYFPEPVTVSWNSGALTSGVHTFPAVLQSSGLYSLSSVVTVPSSSLGTQTYICNVNHKPSNTKVDKKVEPKSCDKTHTCPPAPAPPVAGPSVFLFPPKPKDTLMISRTPEVTCVVVDVSHEDPEVQFNWYVDGVEVHNAKTKPREEQFNSTFRVVSVLTVVHQDWLNGKEYKCKVSNKGLPAPIEKTISKTKGQPREPQVYTLPPCRDELTKNQVSLWCLVKGFYPSDIAVEWESNGQPENNYKTTPPVLDSDGSFFLYSKLTVDKSRWQQGNVFSCSVMHEALHNHYTQKSLSLSPGK light: DVVMTQTPLSLPVSLGDQASISCRSSQSLVHSNGNTYLRWYLQKPGQSPKVLIYKVSNRFSGVPDRFSGSGSGTDFTLKISRVEAEDLGVYFCSQSTHVPWTFGGGTKLEIKRTVAAPSVFIFPPSDEQLKSGTASVVCLLNNFYPREAKVQWKVDNALQSGNSQESVTEQDSKDSTYSLSSTLTLSKADYEKHKVYACEVTHQGLSSPVTKSFNRGEC",197 nM,163 nM
